The source of these data is publication PMC11417181.

The target in experiment [1] is C3b C3b (Homo sapiens) (UniProt P01024). The note with it: cited from earlier work.
For experiment [2], the target named is SCR-17/18H deglycosylated with PNGase F (human). Description: AUC; sedimentation velocity of the SCR fragments, 20 °C, 50,000 rpm, Hepes buffer (10 mM Hepes, 137 mM NaCl, pH 7.4), c(s) analysis in SEDFIT, proportions of monomer and dimer from peak integration; monomer to dimer.

Complement factor H, sequence (P08603 19-1231): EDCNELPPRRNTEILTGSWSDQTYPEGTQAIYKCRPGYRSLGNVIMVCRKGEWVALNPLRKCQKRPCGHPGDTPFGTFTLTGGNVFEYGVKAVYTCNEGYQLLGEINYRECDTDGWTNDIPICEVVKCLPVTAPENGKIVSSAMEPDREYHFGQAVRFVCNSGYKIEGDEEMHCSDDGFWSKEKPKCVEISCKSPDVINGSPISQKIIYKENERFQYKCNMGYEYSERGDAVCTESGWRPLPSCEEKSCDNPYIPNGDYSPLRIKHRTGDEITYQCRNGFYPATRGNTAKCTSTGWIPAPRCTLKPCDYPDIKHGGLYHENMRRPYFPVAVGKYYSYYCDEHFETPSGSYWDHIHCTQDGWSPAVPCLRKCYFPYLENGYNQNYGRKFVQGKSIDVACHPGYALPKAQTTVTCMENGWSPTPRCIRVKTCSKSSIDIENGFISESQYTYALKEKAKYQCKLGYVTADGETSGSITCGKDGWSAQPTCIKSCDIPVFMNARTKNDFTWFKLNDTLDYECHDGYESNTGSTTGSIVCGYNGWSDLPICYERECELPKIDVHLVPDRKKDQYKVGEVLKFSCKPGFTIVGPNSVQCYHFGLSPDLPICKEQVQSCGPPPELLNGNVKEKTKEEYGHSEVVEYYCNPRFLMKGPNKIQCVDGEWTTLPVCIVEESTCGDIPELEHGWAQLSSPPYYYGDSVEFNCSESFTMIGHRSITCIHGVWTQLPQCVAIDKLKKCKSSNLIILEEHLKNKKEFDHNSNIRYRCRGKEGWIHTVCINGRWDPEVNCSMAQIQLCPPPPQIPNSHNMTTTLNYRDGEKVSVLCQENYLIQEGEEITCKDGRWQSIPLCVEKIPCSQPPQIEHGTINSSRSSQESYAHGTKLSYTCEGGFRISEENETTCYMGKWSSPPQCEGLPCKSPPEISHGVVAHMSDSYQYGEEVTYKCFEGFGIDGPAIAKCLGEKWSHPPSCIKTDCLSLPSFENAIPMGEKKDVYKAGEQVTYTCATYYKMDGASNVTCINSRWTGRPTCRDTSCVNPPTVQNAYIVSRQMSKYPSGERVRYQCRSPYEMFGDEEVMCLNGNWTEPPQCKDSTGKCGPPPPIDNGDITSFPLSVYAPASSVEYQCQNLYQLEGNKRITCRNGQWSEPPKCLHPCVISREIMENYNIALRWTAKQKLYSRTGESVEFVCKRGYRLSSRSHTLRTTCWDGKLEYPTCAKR
C3b C3b (Homo sapiens), sequence (P01024 566-670): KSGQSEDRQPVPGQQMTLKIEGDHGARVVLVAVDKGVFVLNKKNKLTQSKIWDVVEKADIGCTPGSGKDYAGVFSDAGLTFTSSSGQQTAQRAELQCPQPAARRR

Usually Kd stands for the constant that tells how readily two partners part at equilibrium. As for “Complement factor H (from UniProt P08603)”, the Kd in experiment [1] was 1060 nM.
For orientation: stoichiometry N means a count of units in the complex or per binding partner. “SCR-17/18H deglycosylated with PNGase F (domain or fragment)”: in experiment [2], the proportion of dimer came to 16% and the stoichiometry N was 2.
